Data from publication PMC4303232.

Molecular target: FADD (UniProt Q13158)
Experiment: anti-flag immunoprecipitation, immunoblot
Conditions: reference: wild type; sites S116

- binding against the reference: weaker
Substance: PEA15 (from UniProt Q15121) S116A
